Laboratory results: patent US20250218531A1 (ABSCI, published 2025)
Numbering of substitutions follows the chain as printed.

B1: Trastuzumab HCDR3 variant ARWYGYGGYYFDY (Fab, V domains shown)
VH: EVQLVESGGGLVQPGGSLRLSCAASGFNIKDTYIHWVRQAPGKGLEWVARIYPTNGYTRYADSVKGRFTISADTSKNTAYLQMNSLRAEDTAVYYCARWYGYGGYYFDYWGQGTLVTVSS
VL: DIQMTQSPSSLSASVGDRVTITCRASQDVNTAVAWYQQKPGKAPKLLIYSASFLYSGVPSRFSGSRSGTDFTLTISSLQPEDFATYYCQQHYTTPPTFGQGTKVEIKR
B2: Trastuzumab HCDR3 variant ARWYYGYYYYFDV (Fab, V domains shown)
VH: B1 VH with G101Y, Y102G, G103Y, G104Y, Y109V
VL: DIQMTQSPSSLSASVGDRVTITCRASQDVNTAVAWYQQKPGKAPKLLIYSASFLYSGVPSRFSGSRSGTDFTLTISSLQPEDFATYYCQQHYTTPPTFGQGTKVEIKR
B3: Trastuzumab HCDR3 variant ARWYYYGGYYFDV (Fab, V domains shown)
VH: B1 VH with G101Y, Y109V
VL: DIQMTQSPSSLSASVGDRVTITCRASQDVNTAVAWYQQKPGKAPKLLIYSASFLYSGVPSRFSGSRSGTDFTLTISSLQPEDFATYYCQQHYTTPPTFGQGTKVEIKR
B4: Trastuzumab HCDR3 variant ARWYYYGGYYFDY (Fab, V domains shown)
VH: B1 VH with G101Y
VL: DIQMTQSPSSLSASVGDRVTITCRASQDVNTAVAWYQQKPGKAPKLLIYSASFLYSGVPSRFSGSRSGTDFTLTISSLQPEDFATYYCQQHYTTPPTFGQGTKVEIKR
B5: Trastuzumab HCDR3 variant ARWYYYGRYYFDY (Fab, V domains shown)
VH: B1 VH with G101Y, G104R
VL: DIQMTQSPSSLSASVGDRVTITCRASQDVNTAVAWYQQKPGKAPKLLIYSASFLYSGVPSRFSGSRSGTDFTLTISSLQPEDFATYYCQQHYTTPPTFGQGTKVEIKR
B6: Trastuzumab HCDR3 variant ARYAHYGPYYFDF (Fab, V domains shown)
VH: B1 VH with W99Y, Y100A, G101H, G104P, Y109F
VL: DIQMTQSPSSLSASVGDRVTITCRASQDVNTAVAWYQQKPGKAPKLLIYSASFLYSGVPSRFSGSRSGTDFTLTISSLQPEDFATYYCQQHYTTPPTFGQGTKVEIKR
B7: Trastuzumab HCDR3 variant ARYDPYGFYHLDY (Fab, V domains shown)
VH: B1 VH with W99Y, Y100D, G101P, G104F, Y106H, F107L
VL: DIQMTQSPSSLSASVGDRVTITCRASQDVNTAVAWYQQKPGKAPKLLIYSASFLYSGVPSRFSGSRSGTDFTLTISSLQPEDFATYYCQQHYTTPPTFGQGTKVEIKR
B8: Trastuzumab HCDR3 variant ARYEAYGLYPFGY (Fab, V domains shown)
VH: B1 VH with W99Y, Y100E, G101A, G104L, Y106P, D108G
VL: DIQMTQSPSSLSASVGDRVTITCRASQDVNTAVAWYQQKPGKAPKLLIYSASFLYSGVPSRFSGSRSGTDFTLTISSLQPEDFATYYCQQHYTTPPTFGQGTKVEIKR
B9: Trastuzumab HCDR3 variant ARYFYDYYYYFDF (Fab, V domains shown)
VH: B1 VH with W99Y, Y100F, G101Y, Y102D, G103Y, G104Y, Y109F
VL: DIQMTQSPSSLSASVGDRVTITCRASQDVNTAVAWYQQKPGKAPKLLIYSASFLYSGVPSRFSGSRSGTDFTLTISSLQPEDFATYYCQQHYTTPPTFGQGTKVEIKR
B10: Trastuzumab HCDR3 variant ARYGDGYYYYFAY (Fab, V domains shown)
VH: B1 VH with W99Y, Y100G, G101D, Y102G, G103Y, G104Y, D108A
VL: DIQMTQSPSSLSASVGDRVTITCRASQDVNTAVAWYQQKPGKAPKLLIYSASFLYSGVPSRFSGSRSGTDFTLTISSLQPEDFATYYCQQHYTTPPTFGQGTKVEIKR
B11: Trastuzumab HCDR3 variant ARYGGGGRYYFDY (Fab, V domains shown)
VH: B1 VH with W99Y, Y100G, Y102G, G104R
VL: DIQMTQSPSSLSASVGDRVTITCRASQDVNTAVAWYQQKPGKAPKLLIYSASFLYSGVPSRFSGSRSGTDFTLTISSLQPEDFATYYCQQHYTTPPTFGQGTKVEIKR
B12: Trastuzumab HCDR3 variant ARYGSGYYYYFDY (Fab, V domains shown)
VH: B1 VH with W99Y, Y100G, G101S, Y102G, G103Y, G104Y
VL: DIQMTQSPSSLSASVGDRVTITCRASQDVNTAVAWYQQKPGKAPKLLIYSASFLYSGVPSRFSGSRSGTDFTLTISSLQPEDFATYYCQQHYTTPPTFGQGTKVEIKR
B13: Trastuzumab HCDR3 variant ARYGSRYYYYFDY (Fab, V domains shown)
VH: B1 VH with W99Y, Y100G, G101S, Y102R, G103Y, G104Y
VL: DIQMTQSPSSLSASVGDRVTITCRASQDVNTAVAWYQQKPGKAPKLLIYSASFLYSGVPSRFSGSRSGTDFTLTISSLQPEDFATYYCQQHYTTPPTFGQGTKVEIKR
B14: Trastuzumab HCDR3 variant ARYGSSYYYYFDY (Fab, V domains shown)
VH: B1 VH with W99Y, Y100G, G101S, Y102S, G103Y, G104Y
VL: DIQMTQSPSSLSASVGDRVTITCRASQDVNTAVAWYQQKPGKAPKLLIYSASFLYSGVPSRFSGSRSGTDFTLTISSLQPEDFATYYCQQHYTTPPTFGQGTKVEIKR
B15: Trastuzumab HCDR3 variant ARYGVYPFYYFDY (Fab, V domains shown)
VH: B1 VH with W99Y, Y100G, G101V, G103P, G104F
VL: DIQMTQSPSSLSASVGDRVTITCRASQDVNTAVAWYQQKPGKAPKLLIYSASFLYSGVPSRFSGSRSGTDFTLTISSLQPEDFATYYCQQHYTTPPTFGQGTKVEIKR
B16: Trastuzumab HCDR3 variant ARYGYYGPYYFDY (Fab, V domains shown)
VH: B1 VH with W99Y, Y100G, G101Y, G104P
VL: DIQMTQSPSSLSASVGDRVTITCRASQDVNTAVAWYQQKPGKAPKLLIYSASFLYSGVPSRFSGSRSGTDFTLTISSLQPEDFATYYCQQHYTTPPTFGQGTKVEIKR
B17: Trastuzumab HCDR3 variant ARYLQLGPYYFDY (Fab, V domains shown)
VH: B1 VH with W99Y, Y100L, G101Q, Y102L, G104P
VL: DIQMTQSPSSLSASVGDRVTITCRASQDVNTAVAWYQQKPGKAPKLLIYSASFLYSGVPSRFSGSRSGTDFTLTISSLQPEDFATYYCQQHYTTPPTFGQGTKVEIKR
B18: Trastuzumab HCDR3 variant ARYRGVWYYDFDN (Fab, V domains shown)
VH: B1 VH with W99Y, Y100R, Y102V, G103W, G104Y, Y106D, Y109N
VL: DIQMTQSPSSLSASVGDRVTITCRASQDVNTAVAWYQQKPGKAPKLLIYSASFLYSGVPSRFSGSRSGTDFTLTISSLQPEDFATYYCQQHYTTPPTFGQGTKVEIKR
B19: Trastuzumab HCDR3 variant ARYRGYVLYDFAY (Fab, V domains shown)
VH: B1 VH with W99Y, Y100R, G103V, G104L, Y106D, D108A
VL: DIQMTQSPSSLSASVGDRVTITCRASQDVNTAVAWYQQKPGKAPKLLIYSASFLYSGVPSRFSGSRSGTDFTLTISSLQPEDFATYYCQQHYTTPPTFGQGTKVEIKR
B20: Trastuzumab HCDR3 variant ARYSAYGLYDFAY (Fab, V domains shown)
VH: B1 VH with W99Y, Y100S, G101A, G104L, Y106D, D108A
VL: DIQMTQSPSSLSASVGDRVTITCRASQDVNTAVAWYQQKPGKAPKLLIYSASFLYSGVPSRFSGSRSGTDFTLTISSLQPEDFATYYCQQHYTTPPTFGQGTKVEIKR
B21: Trastuzumab HCDR3 variant ARYSGYGLYPYAY (Fab, V domains shown)
VH: B1 VH with W99Y, Y100S, G104L, Y106P, F107Y, D108A
VL: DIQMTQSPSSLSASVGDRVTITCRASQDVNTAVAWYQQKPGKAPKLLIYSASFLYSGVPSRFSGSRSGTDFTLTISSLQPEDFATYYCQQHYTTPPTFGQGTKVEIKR
B22: Trastuzumab HCDR3 variant ARYTYFGSFDFDY (Fab, V domains shown)
VH: B1 VH with W99Y, Y100T, G101Y, Y102F, G104S, Y105F, Y106D
VL: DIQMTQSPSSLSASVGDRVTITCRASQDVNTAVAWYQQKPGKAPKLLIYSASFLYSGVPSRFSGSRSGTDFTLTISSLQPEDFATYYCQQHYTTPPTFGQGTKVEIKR
B23: Trastuzumab HCDR3 variant ARYVGLGGYPLGY (Fab, V domains shown)
VH: B1 VH with W99Y, Y100V, Y102L, Y106P, F107L, D108G
VL: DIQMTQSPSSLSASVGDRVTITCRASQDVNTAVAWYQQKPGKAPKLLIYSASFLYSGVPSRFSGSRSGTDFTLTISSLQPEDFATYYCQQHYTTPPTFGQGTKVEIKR
B24: Trastuzumab HCDR3 variant ARYWGLGGYYFDH (Fab, V domains shown)
VH: B1 VH with W99Y, Y100W, Y102L, Y109H
VL: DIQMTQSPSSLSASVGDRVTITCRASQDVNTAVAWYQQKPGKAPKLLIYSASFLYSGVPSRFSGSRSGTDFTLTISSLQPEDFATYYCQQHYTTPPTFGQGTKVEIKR
B25: Trastuzumab HCDR3 variant ARYWYGGYYYFDY (Fab, V domains shown)
VH: B1 VH with W99Y, Y100W, G101Y, Y102G, G104Y
VL: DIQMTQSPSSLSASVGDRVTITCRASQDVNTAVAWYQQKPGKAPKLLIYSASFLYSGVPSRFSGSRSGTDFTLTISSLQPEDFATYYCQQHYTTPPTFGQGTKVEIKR
B26: Trastuzumab HCDR3 variant ARYYGYGGYWYDT (Fab, V domains shown)
VH: B1 VH with W99Y, Y106W, F107Y, Y109T
VL: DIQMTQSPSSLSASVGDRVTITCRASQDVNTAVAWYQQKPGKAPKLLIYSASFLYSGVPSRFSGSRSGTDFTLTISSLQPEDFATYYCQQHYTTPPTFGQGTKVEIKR
B27: Trastuzumab HCDR3 variant ARYYGYGGYYFDY (Fab, V domains shown)
VH: B1 VH with W99Y
VL: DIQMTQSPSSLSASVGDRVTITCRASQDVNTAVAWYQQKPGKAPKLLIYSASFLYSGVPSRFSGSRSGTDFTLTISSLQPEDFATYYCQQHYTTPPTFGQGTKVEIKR
B28: Trastuzumab HCDR3 variant ARYYGYGGYYMDY (Fab, V domains shown)
VH: B1 VH with W99Y, F107M
VL: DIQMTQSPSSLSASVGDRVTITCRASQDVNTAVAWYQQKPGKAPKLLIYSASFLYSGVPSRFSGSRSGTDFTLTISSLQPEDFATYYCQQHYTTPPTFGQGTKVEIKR
B29: Trastuzumab HCDR3 variant ARYYGYGYYYFHY (Fab, V domains shown)
VH: B1 VH with W99Y, G104Y, D108H
VL: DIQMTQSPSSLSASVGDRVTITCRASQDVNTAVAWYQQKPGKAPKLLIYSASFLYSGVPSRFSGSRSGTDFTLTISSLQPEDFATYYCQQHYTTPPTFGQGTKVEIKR
B30: Trastuzumab HCDR3 variant ARYYSYGQYAFDP (Fab, V domains shown)
VH: B1 VH with W99Y, G101S, G104Q, Y106A, Y109P
VL: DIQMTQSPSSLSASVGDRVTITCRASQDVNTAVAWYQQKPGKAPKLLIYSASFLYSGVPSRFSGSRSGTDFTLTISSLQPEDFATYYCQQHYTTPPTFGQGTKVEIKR
B31: Trastuzumab HCDR3 variant ARYYYDYYYYFDY (Fab, V domains shown)
VH: B1 VH with W99Y, G101Y, Y102D, G103Y, G104Y
VL: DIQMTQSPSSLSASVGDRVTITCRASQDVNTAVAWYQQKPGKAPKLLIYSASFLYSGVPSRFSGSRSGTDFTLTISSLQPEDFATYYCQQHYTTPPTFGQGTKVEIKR
B32: Trastuzumab HCDR3 variant ASYGLDGYYYFDV (Fab, V domains shown)
VH: B1 VH with R98S, W99Y, Y100G, G101L, Y102D, G104Y, Y109V
VL: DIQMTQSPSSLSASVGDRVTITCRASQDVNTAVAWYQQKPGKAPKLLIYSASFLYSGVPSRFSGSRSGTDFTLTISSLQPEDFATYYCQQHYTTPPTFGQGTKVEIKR
B33: Trastuzumab HCDR3 variant ATYSTYYNYAFGI (Fab, V domains shown)
VH: B1 VH with R98T, W99Y, Y100S, G101T, G103Y, G104N, Y106A, D108G, Y109I
VL: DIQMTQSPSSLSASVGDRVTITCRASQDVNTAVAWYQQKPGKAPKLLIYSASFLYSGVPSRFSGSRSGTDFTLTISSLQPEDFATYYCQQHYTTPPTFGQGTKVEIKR
B34: Trastuzumab HCDR3 variant AVTDLDGLHSYRY (Fab, V domains shown)
VH: B1 VH with R98V, W99T, Y100D, G101L, Y102D, G104L, Y105H, Y106S, F107Y, D108R
VL: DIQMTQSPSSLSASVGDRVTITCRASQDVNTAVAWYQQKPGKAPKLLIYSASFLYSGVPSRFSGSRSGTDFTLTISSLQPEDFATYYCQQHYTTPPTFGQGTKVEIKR
B35: Trastuzumab HCDR3 variant SRYYAGGWYYFDY (Fab, V domains shown)
VH: B1 VH with A97S, W99Y, G101A, Y102G, G104W
VL: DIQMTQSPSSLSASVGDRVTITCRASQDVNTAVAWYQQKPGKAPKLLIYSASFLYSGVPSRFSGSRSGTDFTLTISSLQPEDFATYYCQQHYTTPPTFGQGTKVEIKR
B36: Trastuzumab HCDR3 variant TRNYYDYYYYFDY (Fab, V domains shown)
VH: B1 VH with A97T, W99N, G101Y, Y102D, G103Y, G104Y
VL: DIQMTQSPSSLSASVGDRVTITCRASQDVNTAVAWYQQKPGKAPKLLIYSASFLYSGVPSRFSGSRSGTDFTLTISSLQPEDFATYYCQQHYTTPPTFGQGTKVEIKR
B37: Trastuzumab HCDR3 variant TRWLEGLSYFMDY (Fab, V domains shown)
VH: B1 VH with A97T, Y100L, G101E, Y102G, G103L, G104S, Y106F, F107M
VL: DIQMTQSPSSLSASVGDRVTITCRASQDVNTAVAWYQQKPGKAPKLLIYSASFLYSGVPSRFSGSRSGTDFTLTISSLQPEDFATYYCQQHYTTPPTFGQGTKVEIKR

molecular target: T1, HER2 (human epidermal growth factor receptor 2) (human, UniProt P04626 23-629); assay: SPR
T1 construct: also called Antigen: HER2

Binder | Kd [nM] | log(KD (M))
B1 | 7.43 | -8.13
B2 | 7.04 | -8.15
B3 | 12.5 | -7.9
B4 | 8.29 | -8.08
B5 | 11 | -7.96
B6 | 19.8 | -7.7
B7 | 24.2 | -7.62
B8 | 3.39 | -8.47
B9 | 7.11 | -8.15
B10 | 7.31 | -8.14
B11 | 19.6 | -7.71
B12 | 15.7 | -7.8
B13 | 15.7 | -7.8
B14 | 13.9 | -7.86
B15 | 27 | -7.57
B16 | 14.3 | -7.84
B17 | 14.7 | -7.83
B18 | 14.5 | -7.84
B19 | 23.1 | -7.64

Binder | Kd [nM] | log(KD (M))
B20 | 25.5 | -7.59
B21 | 17.4 | -7.76
B22 | 15.8 | -7.8
B23 | 13.2 | -7.88
B24 | 16.5 | -7.78
B25 | 19.7 | -7.71
B26 | 8.19 | -8.09
B27 | 8.05 | -8.09
B28 | 9.91 | -8
B29 | 20.2 | -7.7
B30 | 19.4 | -7.71
B31 | 8.44 | -8.07
B32 | 19.3 | -7.71
B33 | 22.6 | -7.65
B34 | 23.3 | -7.63
B35 | 11.8 | -7.93
B36 | 7.54 | -8.12
B37 | 2.4 | -8.62
